This is an account of results in patent US20250243243A1, “DISRUPTION OF SONIC HEDGEHOG-SURF4 INTERACTION FOR CANCER TREATMENT” (The Hong Kong University of Science and Technology, priority 2022, published 2025).

In assay [1] the target is ShhN^1-198-HA (mouse) (UniProt Q62226). Kind of assay: anti-HA immunoprecipitation from HEK293T lysate, label-free quantitative mass spectrometry; ratio of the ShhN-HA group to the IGF2-HA group.
The target of another assay is IGF2-HA (human) (UniProt P01344). Kind of assay: anti-HA immunoprecipitation from HEK293T lysate, label-free quantitative mass spectrometry; 2 unique peptides; untransfected Control Group printed 247624.8556.
Assay [2] concerns the target ShhN^1-198-HA (mouse) (UniProt Q62226). The assay is described as above.

ShhN^1-198-HA (mouse), sequence (Q62226 25-198): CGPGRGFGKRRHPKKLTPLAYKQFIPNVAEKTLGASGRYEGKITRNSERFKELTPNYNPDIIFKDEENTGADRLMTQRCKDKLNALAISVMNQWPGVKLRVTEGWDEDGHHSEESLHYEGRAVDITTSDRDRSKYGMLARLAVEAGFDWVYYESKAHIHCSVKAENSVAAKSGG

B1: CLINT1 (protein, human (HEK293T cells), UniProt Q14677 1-625, looked up)
single chain: MLNMWKVRELVDKATNVVMNYSEIESKVREATNDDPWGPSGQLMGEIAKATFMYEQFPELMNMLWSRMLKDNKKNWRRVYKSLLLLAYLIRNGSERVVTSAREHIYDLRSLENYHFVDEHGKDQGINIRQKVKELVEFAQDDDRLREERKKAKKNKDKYVGVSSDSVGGFRYSERYDPEPKSKWDEEWDKNKSAFPFSDKLGELSDKIGSTIDDTISKFRRKDREDSPERCSDSDEEKKARRGRSPKGEFKDEEETVTTKHIHITQATETTTTRHKRTANPSKTIDLGAAAHYTGDKASPDQNASTHTPQSSVKTSVPSSKSSGDLVDLFDGTSQSTGGSADLFGGFADFGSAAASGSFPSQVTATSGNGDFGDWSAFNQAPSGPVASSGEFFGSASQPAVELVSGSQSALGPPPAASNSSDLFDLMGSSQATMTSSQSMNFSMMSTNTVGLGLPMSRSQNTDMVQKSVSKTLPSTWSDPSVNISLDNLLPGMQPSKPQQPSLNTMIQQQNMQQPMNVMTQSFGAVNLSSPSNMLPVRPQTNALIGGPMPMSMPNVMTGTMGMAPLGNTPMMNQSMMGMNMNIGMSAAGMGLTGTMGMGMPNIAMTSGTVQPKQDAFANFANFSK
As for B1, in the assay with ShhN^1-198-HA (mouse) [1], the Abundance Ratio ShhN:IGF2 is 3.5. This molecule also showed an abundance in The IGF2 Group in the assay with IGF2-HA (human) of 78500. This molecule also returned an abundance in The ShhN Group with ShhN^1-198-HA (mouse) [2] of 275000.
